US20240041987A1, “NOVEL BIOACTIVE PEPTIDE COMBINATIONS AND USES THEREOF” (COLZYX AB, priority 2020, published 2024)
Where two headings read alike, the source gives them in different places.

Tests used:
microorganisms = conditions: cited from earlier work
wound healing = conditions: cited from earlier work
[1] = 25 ± 2° C./60% RH ± 5%, 1 month
[2] = 25 ± 2° C./60% RH ± 5%, 3 months

## SFVARNTFKRVRNGFLMRKVAVFFSNTPTRASP (SFV33) [peptide derived from collagen VI alpha-3 chain]
25 ± 2° C./60% RH ± 5%, 0 D
  Appearance: White powder
  Identity (RP-HPLC): Retention Time Conforms
  Impurity (Report all ≥0.10%): RRT = 0.65: 0.17%
  Impurity (Report all ≥0.10%): RRT = 1.02: 0.23%
  No other individual impurity ≥0.50%: conforms
  Purity (RP-HPLC): 98.1%
  Related Impurities (by RRT), Specified Impurity %: RRT = 0.90: 0.26%
  Related Impurities (by RRT), Specified Impurity %: RRT = 0.95: 0.14%
  Related Impurities (by RRT), Specified Impurity %: RRT = 0.97: 0.47%
  Water Content (KF): 4.7%
[1]
  Appearance: White powder
  Identity (RP-HPLC): Retention Time Conforms
  Impurity (Report all ≥0.10%): RRT = 0.66: 0.13%
  Impurity (Report all ≥0.10%): RRT = 0.85: 0.11%
  Impurity (Report all ≥0.10%): RRT = 1.02: 0.31%
  Impurity (Report all ≥0.10%): RRT = 1.04: 0.17%
  Impurity (Report all ≥0.10%): RRT = 1.08: 0.24%
  No other individual impurity ≥0.50%: conforms
  Purity (RP-HPLC): 97.8%
  Related Impurities (by RRT), Specified Impurity %: RRT = 0.90: 0.24%
  Related Impurities (by RRT), Specified Impurity %: RRT = 0.95: 0.13%
  Related Impurities (by RRT), Specified Impurity %: RRT = 0.97: 0.47%
  Water Content (KF): 6.8%
[2]
  Appearance: White powder
  Identity (RP-HPLC): Retention Time Conforms
  Impurity (Report all ≥0.10%): RRT = 0.62: 0.15%
  Impurity (Report all ≥0.10%): RRT = 0.84: 0.28%
  No other individual impurity ≥0.50%: Not conforms *
  Purity (RP-HPLC): 96.9%
  Related Impurities (by RRT), Specified Impurity %: RRT = 0.90: 0.20%
  Related Impurities (by RRT), Specified Impurity %: RRT = 0.95: 0.09%
  Related Impurities (by RRT), Specified Impurity %: RRT = 0.97: 0.42%
  Water Content (KF): 8.4%
Stored at 25° C.
  change in purity during the initial 3 months: slight decrease in purity
Stored at 25° C., at 3 months
  new impurities: some new impurities were detected
Stored at 25° C., over the 3 months
  change of water content: increased
−20 ± 5° C., 0 D
  Appearance: White powder
  Identity (RP-HPLC): Retention Time Conforms
  Impurity (Report all ≥0.10%): RRT = 0.65: 0.17%
  Impurity (Report all ≥0.10%): RRT = 1.02: 0.23%
  No other individual impurity ≥0.50%: conforms
  Purity (RP-HPLC): 98.1%
  Related Impurities (by RRT), Specified Impurity %: RRT = 0.90: 0.26%
  Related Impurities (by RRT), Specified Impurity %: RRT = 0.95: 0.14%
  Related Impurities (by RRT), Specified Impurity %: RRT = 0.97: 0.47%
  Water Content (KF): 4.7%
−20 ± 5° C., 1 month
  Appearance: White powder
  Identity (RP-HPLC): Retention Time Conforms
  Impurity (Report all ≥0.10%): RRT = 1.03: 0.24%
  No other individual impurity ≥0.50%: conforms
  Purity (RP-HPLC): 98.3%
  Related Impurities (by RRT), Specified Impurity %: RRT = 0.90: 0.23%
  Related Impurities (by RRT), Specified Impurity %: RRT = 0.95: 0.10%
  Related Impurities (by RRT), Specified Impurity %: RRT = 0.98: 0.44%
  Water Content (KF): 4.9%
microorganisms
  Antimicrobial activity?: Yes
Wound healing
  Wound healing activity?: No
